From the DeepSol protein solubility set

Assay: soluble on expression in E. coli; label from the status in PepcDB or PDB records

Soluble on expression in E. coli, not soluble:
MSLKHVIVETEETGYQTRSRVVSVEARTIRVPLERSTAFSTRLVTARDYTVVRVTTADGHYGIGFCYSGNRAGMLVTYAVRELFAPLLLGRSALDVEGSWCAMYDESLLQGRAGSVMRALSILDIALWDRNARATGLPLSRYLGGTCSATVPAYASGGYYLEGKTPEHLGEEMAGYVALGFRAVKMKVGRLDPRSEEARIRAAREAIGDDVLLMLDANNAWSDVPTALEYMRRYEPFNPYWIEEPFSPDDIESHAQLSRRTPVTVATGEIEAGRWRHQELLDKRAALILQSDAAVCGGISEWRRIAASAAAVGVTMCPHWFHDLHVHLVASTTNARYVEFFPDDQVLNFRRLVDTQLSFADGKLTVPTRPGLGFDFDEAALNEYALDDWAEGHHHHHH, MSLKIAEAAARSGLSIDTIRFYERSGLLPPIARGADGMRRFSPETVDWLRLLASLRETGMELRAMRRFAELYRQGDATIPERRRILQDHAASLNGRRAALDRCAALLAHKLQRYCEIEGEGHHHHHH, MSLKILVIGGTGNIGLPLIQYLDQQVGVQVVAGAHNLHKDEQLLATYPDVEIRRFDFLDETTFDAALRGIQKVFFVRPPQLAKPKQDMWPFLKCLQAHHIEQVVFVSLMGVEHNPMTPHHQIEQMIEQLQLPYTFIRPSFFMQNLNTTHRVDIQQNHDLFIPAGRSKTSFIDTRDIGEIAGVALLDTQYLQQKLTVTGPEALTYQQIAALMTESFGHPVTYHRPSLWRFRRVMLKRGIKKDYVNVMVMLYLITQLGNAKRVTDTAEKVLGHAPHTMTTYLRDYADQLQEGHHHHHH, MSLKKILVQWKNGPSQIGRMYPLPVFDEHDIVQLCSEVKDILRIQPAVIQRKPGVIIVGDLHGNFLNFLQIFAIHGLPPNQNYIFLGNYINYGEFSLEVVIYLFSLYYLFPSNISLLRGSTEFYPSKGPRSLSSNIDTTYGPNSILKSVFLETFTYLPIACLIGNSVLCSRSSLVSRYSNLQEIFHETLPIPCVVDQSHLFLSGLANVIPSEEVLEEFLATNNLNFLIFGGKNAGDGVENMLDDRCYALASDAHMGYCGIINLVGNQPPFAIIFTPDSDLLRENAQMLREGHHHHHH, MSLKLKIADIAMRTGLSSSTVSRVLAGKANTSYRAREKVLACARELGVMDGMASGRMLLNNLVIFAPQRAFDERTDIFYFRVIQSISKALSHYEVRLRYCALDEFDSTPSKFLARMNEAETQAAILLGIDDPHIHDLAADFSKPCVMINCHDRRMRLPTVAPDHKNIGAFASHFLFEMGHRRVMNIMCLRRYTMELRLAGIKEAWERQNQNFKDDRDLLTINSFSAKEAEEKVGAWLDMTEKSMLPTAFLASGDFIAAGIINALKKRNIRVPQDVSVMSIDGFNLAAIEDVPLTAVHVPRDELGTEAVHMLQQRLVRPDATVGALLLYGKLVIRESVREGHHHHHH

Soluble on expression in E. coli, soluble:
MSLKDFAGRTAFVTGGANGVGIGLVRQLLNQGCKVAIADIRQDSIDKALATLEAEGSGPEVMGVQLDVASREGFKMAADEVEARFGPVSILCNNAGVNLFQPIEESSYDDWDWLLGVNLHGVVNGVTTFVPRMVERVKAGEQKGGHVVNTASMAAFLAAGSPGIYNTTKFAVRGLSESLHYSLLKYEIGVSVLCPGLVKSYIYASDDIRPDALKGEVKPVDKTAVERLAGVHEFGMEPDVIGARVIEAMKANRLHIFSHPDHKEELREVFDEIIAEYQDYPKDPGYDQRVAFEKFRADSFAEARRQSRAADEGHHHHHH, MSLKDSGILFVDDDILFLALLRECFMQRGIVIQCAENGEDALQMIQQRPFALLLTDLQMPGMDGLELAGKARKLMPDLPIVLCTGAVTPEVCALAEEIGIAQVVRKPIRFSELFAIVGNIVSLQQTEGHHHHHH, MSLKEFYIGDQFYLDGEPFKILSGAIHYFRVHPDDWYHSLYNLKALGFNTVETYVPWNMHEPRKGEFCYEGILDIERFLKLAQELGLYAIVRPSPYICAEWEWGGLPAWLMKEELRVRSSDSVYLQHLDEYYVSLIPKLAKLQLAQGGNVLMFQVENEYGSYGEEKAYLRAVAGLMRKHGLTAPLFTSDGSWRATLRAGTLIEDDVFVTGNFGSKARENFANMTAFFNEHQKNWPLMCMEFWDGWFNRWGDEIIRREPEEMVDSVMECIELGSLNLYMFHGGTNFGFMNGCSARGQIDLPQVTSYDYDAILDEAGNPTKKFYILQQRLKEVYPELEYAEPLVKEAKAFSDVSLHDKVSLFATLENVSDCVKGFYPKNMEELDQSTGYILYRTELERDKTEAERFRVVDARDRIQIYADGKFVATQYQTEIGDDVELDFKDDKLTLDILVENMGRVNYGHKLTAPTQSKGIGRGAMADLHFIGHWETYPLHLESVEDLDFSKGWEEGQAAFYRYQFELDELADTYLDMTGFGKGVVFVNNVNIGRFWEKGPILYLYIPKGYLKKGANEIVVFETEGKYREKIHFSQRPVIKDLEGHHHHHH, MSLKEVIFVLLNEFADWEGAFIAACLNQGVMPGSPVPYKVKTLSITKEPVSSIGGFRVLPDYDLKDMPEDYAGLILIGGMSWFSPEAELIAPLIEKAIKDKKVVGGICNASVFLAMHGFLNNVKHTSNTIDYLKQHVGERYTGDSNYVDQQAVRDGKIITANGTGQLEFCREILYALEADTAEAIEKSYLFYKNGEGHHHHHH, MSLKHTRPSIVNKRIDGRLTMSDNSKTRVVVGMSGGVDSSVTALLLKEQGYDVIGIFMKNWDDTDENGVCTATEDYKDVVAVADQIGIPYYSVNFEKEYWDRVFEYFLAEYRAGRTPNPDVMCNKEIKFKAFLDYAMTLGADYVATGHYARVARDEDGTVHMLRGVDNGKDQTYFLSQLSQEQLQKTMFPLGHLKKPEVRKLAEEAGLSTAKKKDSTGICFIGEKNFKNFLSNYLPAQPGRMMTVDGRDMGEHAGLMYYTIGQRGGLGIGGQHGGDNAPWFVVGKDLSKNILYVGQGFYHDSLMSTSLEASQVHFTREMPEEFTLECTAKFRYRQPDSKVTVHVKGDKAEVIFAEPQRAITPGQAVVFYDGEECLGGGLIDNAYRDGQVCQYIEGHHHHHH, MSLKIGIIGASGKAGNEILKEAKKRGHEVTAIVRNASKVQEQDVAILEKDVFELTAEDIKPFDAVVNAFGAAPGQEHLHVEAGRALISILKDAKHTRLLVVGGAGSLFVDEAKTTRLMDTPEFPKEYLPTASNQGENLKDLQQTDSISWTFLSPAAFFDPAGKRTGSYQKGKDNVIVNAKGDSYISYADYAIAVLDELEHPEHKNERFTVVSEAEEGGSHHHHHH, MSLKIIILGAGQVGGTLAENLAGENNDITIVDTDSDRLRELQDKFDLRVVNGHGAHPKVLREAGAQDADMLVAVTNSDETNMVACQVAYSLFNTPNKVARIRSPAYLVERDRLFLPESVPVDHLIAPEQLVTDYVRRLIEYPGALQVVDFAGGKVGLVAVKAYYGGPLVGNALSTLRDHMPNIETRVAAIFRQGRSIRPQGTTIIEADDEVFFVAAAGHIRAVMSELQRLESPYRRIMIVGGGNIGAGLARQLEKRYSVKLIERNQKRAEQLSEVLENTIVFCGDAADQELLAEEHIDQIDVFIAVTNEDEANIMSALLAKKMGAKKTMVLIQRSAYVDLVQGGSIDIAISPQQATISALLTHVRRADIANVYSLRRGAAEAIEAIAHGDENTSKVVGKTVGELKLPPGTTIGAIVRGDEVLIAHDRTQIQQDDHVVMFLVDKKYIPEVERLFQPSPFFLEGHHHHHH, MSLKILIIEDDLALARSISHNLHDLGHFCEIISSISEENKEPYDVILVSSKVCTQGRCEHFVRYNSKQIIIMMASHVNEDGVNKPIQAGARDYILKPFKMDELLRKIQYHKAYQEMTARLGFYENYLDFIHAELPLPKDFSYRPPFIIHTPSQELANAYLLQYAKERQMDFSFFSLKDTTWKELYKNKDKLERPFYIMHLEELKKDEQLKLLELARSCPIVLSYTHKEPLEFPKIVSIECGNKPLSLFNNHTTFLSIQEYEKEAIRHFSSTCTDTELANKLGISRKSLWEKRRKYNLPREGHHHHHH, MSLKILVIGPSWVGDMMMSQSLYRTLKARYPQAIIDVMAPAWCRPLLSRMPEVNEAIPMPLGHGALEIGERRRLGHSLREKRYDRAWVLPNSFKSALIPFFANIPHRTGWRGEMRYGLLNDARVLDKDAWPLMVERYVALAYDKGVMRAAKDLPQPLLWPQLQVSEGEKSLMCSDFSLSSERPLIGFCPGAEFGPAKRWPHYHYAELAKQLINEGYQVVLFGSAKDHEAGNEILAALNSEQQAWCRNLAGETQLEQAVILIAACKAIVTNDSGLMHVAAALDRPLVALYGPSSPDFTPPLSHKARVIRLITGYHKVRKGDTAQGYHQSLIDITPQRVLEELHSLLSEEGVEGGSHHHHHH, MSLKKDIIILGIESSCDDTSAAVVRNETMLSNVIAGQAVHKAYGGVVPELASRAHQQNIVPVVSEAIKRAGIRKEEIDAIAFTRGPGLLGSLLVGTSFAKGLSLSLGIPMLEVNHLHAHVLANFLREPGEESQHPSFPFLCLLVSGGNSQIILVRSPYDMEVIGQTIDDAAGEAFDKCAKVMGLGYPGGPIVNKLASEGNPDAFRFARPHVSGYDYSFSGLKTSFLYTLRDKLAEDPDFIEKNKADLCASLQHTVIDILMKKLRQAAKDHSIKQVALAGGVSANTGLRDAFHDHARRYGWTVFIPKFAYTTDNAAMVAISGYYKYLQGDFCPIDAVPFSRITVEGHHHHHH, MSLKKEYLQCQSLVDVVRLRALHSPNKKSCTFLNKELEETMTYEQLDQHAKAIAATLQAEGAKPGDRVLLLFAPGLPLIQAFLGCLYAGCIAVPIYPPAQEKLLDKAQRIVTNSKPVIVLMIADHIKKFTADELNTNPKFLKIPAIALESIELNRSSSWQPTSIKSNDIAFLQYTSGSTMHPKGVMVSHHNLLDNLNKIFTSFHMNDETIIFSWLPPHHDMGLIGCILTPIYGGIQAIMMSPFSFLQNPLSWLKHITKYKATISGSPNFAYDYCVKRIREEKKEGLDLSSWVTAFNGAEPVREETMEHFYQAFKEFGFRKEAFYPCYGLAEATLLVTGGTPGSSYKTLTLAKEQFQDHRVHFADDNSPGSYKLVSSGNPIQEVKIIDPDTLIPCDFDQVGEIWVQSNSVAKGYWNQPEETRHAFAGKIKDDERSAIYLRTGDLGFLHENELYVTGRIKDLIIIYGKNHYPQDIEFSLMHSPLHHVLGKCAAFVIQEEHEYKLTVMCEVKNRFMDDVAQDNLFNEIFELVYENHQLEVHTIVLIPLKAMPHTTSGKIRRNFCRKHLLDKTLPIVATWQLNKIEEGHHHHHH, MSLKKTILCFGEALIDMLAQPLVKKGMPRAFLQCAGGAPANVAVAVARLGGAVQFVGMLGSDMFGDFLFDSFAEAGVVTDGIVRTSTAKTALAFVALDAHGERSFSFYRPPAADLLFRVEHFQDASFSDALIFHACSNSMTDADIAEVTFEGMRRAQAAGAIVSFDLNFRPMLWPNGENPASRLWKGLSLADVVKLSSEELDYLANTLAADANAVIQQLWQGRAQLLLVTDAAGPVHWYTRTAGGEVPTFRVQVQDSNAAGDAFVGGMLYTFAQQFDDAAALIDFCHDPESIVSTLRFAAAVGALAVTRQGAFTAMPMLSEVLSLIQEQSEGHHHHHH, MSLKLLAIDSATQAATCAVMDDDKLLGEITFNYKKQHSVILMSMIDDMLNTVNLKVEDLDGFVVSKGPGSFTGLRIGMSIVKGLSEGSKKPFVSVSSLDALAYNMAYTPGIICPVLDALRDNVYTALYTFEGNSLKRLTEYDAIHITELIELLKGYDSQVTFIGDAVYKFRNFFDENVENVQFAPAHLNLVRSSSLCELGMELLKSGVKDDLITSAPIYIRKSQAEREYEKRTGMSIDDEGHHHHHH
